Where a chain is given by its changes, count along the chain named.
T1: MERS-CoV (NCoV/Novel coronavirus) Spike Protein fragment (RBD, aa 367-606, His Tag) (Sino 40071-V08B1) (MERS-CoV, UniProt K9N5Q8 367-606)
T1 sequence: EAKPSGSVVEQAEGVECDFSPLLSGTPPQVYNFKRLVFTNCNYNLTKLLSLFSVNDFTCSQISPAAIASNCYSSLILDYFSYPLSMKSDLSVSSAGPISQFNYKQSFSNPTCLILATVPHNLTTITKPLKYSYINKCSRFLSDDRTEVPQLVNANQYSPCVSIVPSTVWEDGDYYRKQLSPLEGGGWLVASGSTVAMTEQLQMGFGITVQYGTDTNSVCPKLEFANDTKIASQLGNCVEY

T2: MERS-CoV (NCoV/Novel coronavirus) Spike Protein (ECD, aa 1-1297, His Tag) (Sino 40069-[change]) (MERS-CoV, UniProt K9N5Q8 18-1297)
T2 sequence: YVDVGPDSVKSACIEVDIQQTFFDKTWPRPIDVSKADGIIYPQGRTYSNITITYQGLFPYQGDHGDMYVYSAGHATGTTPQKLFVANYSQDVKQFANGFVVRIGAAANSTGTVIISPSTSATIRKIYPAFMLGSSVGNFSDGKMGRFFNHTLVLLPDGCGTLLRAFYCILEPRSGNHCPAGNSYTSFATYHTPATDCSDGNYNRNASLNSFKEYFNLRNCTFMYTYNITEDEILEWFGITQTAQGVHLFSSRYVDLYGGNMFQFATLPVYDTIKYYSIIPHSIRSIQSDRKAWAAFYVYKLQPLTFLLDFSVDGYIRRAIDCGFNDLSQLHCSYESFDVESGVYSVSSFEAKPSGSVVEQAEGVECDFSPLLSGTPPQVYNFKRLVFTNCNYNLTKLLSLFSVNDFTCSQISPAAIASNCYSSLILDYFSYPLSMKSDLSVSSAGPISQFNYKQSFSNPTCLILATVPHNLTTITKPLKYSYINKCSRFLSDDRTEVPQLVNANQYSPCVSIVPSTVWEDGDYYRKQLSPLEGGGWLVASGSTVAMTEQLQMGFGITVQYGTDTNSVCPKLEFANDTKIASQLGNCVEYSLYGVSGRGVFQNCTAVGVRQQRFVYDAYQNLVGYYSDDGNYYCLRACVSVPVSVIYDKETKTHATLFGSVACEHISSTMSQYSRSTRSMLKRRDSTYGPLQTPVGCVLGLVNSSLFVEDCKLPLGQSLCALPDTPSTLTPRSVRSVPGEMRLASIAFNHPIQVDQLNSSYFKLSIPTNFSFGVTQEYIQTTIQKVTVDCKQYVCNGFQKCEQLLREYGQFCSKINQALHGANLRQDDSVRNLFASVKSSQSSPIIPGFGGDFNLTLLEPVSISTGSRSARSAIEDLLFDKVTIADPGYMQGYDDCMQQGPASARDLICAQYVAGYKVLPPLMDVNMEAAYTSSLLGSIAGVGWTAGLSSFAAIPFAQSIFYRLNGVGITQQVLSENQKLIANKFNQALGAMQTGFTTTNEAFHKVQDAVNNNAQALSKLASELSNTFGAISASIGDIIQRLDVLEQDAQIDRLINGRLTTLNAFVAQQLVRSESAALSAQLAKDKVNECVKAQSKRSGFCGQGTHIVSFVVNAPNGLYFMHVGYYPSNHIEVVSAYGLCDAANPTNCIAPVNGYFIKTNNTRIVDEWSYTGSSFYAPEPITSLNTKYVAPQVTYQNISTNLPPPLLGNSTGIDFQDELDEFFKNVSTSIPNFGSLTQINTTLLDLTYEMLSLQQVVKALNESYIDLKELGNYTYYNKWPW

T3: MERS-CoV (NCoV/Novel coronavirus) Spike Protein S2 (aa 726-1296, His Tag) (Sino 40070-[change]) (MERS-CoV, UniProt K9N5Q8 726-1296)
T3 sequence: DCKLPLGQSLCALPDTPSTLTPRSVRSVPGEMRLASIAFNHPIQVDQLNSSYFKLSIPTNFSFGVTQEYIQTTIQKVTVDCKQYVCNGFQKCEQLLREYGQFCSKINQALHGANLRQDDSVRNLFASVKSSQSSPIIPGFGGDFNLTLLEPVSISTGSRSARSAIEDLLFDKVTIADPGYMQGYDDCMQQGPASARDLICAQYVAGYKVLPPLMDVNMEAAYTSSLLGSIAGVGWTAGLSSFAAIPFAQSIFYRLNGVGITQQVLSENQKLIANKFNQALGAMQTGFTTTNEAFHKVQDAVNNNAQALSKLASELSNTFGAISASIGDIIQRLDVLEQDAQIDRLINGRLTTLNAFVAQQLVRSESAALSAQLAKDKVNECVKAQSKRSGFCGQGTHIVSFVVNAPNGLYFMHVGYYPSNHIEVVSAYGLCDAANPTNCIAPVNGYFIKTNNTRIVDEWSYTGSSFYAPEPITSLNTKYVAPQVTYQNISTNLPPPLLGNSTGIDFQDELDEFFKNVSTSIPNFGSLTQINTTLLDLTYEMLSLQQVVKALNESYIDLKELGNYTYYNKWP

B1: mAb10998 (antibody, V domains shown)
VH: EVQLVESGGGLVHPGGSLRLSCAASGLTVSSNYMSWVRQAPGKGLEWVSVIYSGGSTYYADSVKGRFTISRHNSKNTLFLQMNSLRAEDTAVYYCARDRPITGTTLDVWGQGTTVTVSS
VL: DIQMTQSPSSLFASVGDRVTITCRASQSISSYLNWYQQKPGKAPKLLIYAASSLQSGVPSRFSGSGSGTDFTLTISSLQPEDFAFYYCQQTYSTPPITFGQGTRLEIK
B2: mAb11002 (antibody, V domains shown)
VH: EVQLVESGGGLVQPGGSLRLSCAASGFTVSSNYMSWVRQAPGKGLEWVSVIYSGGSTFYADSVKGRFTISRHNSKNTLYLQMNSLRAEDTAVYYCAREGYGMDVWGQGTTVTVSS
VL: not shown
B3: mAb11004 (antibody, V domains shown)
VH: QVQLVESGGGVVQPGRSLRLSCVASGFTFSIYGMDWVRQAPGKGLEWVAVISYDGSNKYYADSVKGRFTISRDNSKNTLYLQMNSLRPEDTAVYYCAKDREAAADAFDIWGQGTMVTVSS
VL: DIQMTQSPSSVSASVGDRVTITCRASQGISSWLAWYQQKPGKAPKLLIYAASSLHSGVPSRFSGSGSGTDFTLTISSLQPEDFATYYCQQANSFRLTFGGGTKVEIK
B4: mAb11010 (antibody, V domains shown)
VH: QVQLVESGGGVVQPGRSLRLSCAASGFTFSSYGMHWVRQAPGKGLEWVAVISYDGSYKYYADSVKGRFTISRDNSKNTLYLQMNSLRAEDTAVYYCAIDGGTVTTIFDYWGQGTLVTVSS
VL: not shown
B5: mAb11000 (antibody, V domains shown)
VH: EVQLVESGGGLVQPGGSLRLSCAASGFTVSSNYMNWVRQAPGKGLEWVSVIYSGGSTFYADSVRGRFTISRHNSKNTLYLQMNSLRAEDTAVYYCARDGSAYGMDVWGQGTTVTVSS
VL: not shown
B6: mAb10955 (antibody, V domains shown)
VH: EVQLVESGGGLVQPGGSLRVSCAASGFTVSRNYMSWVRQAPGKGLEWVSVIYSGGSTFYADSVKGRFTISRDNSKNTLYLQMNSLRAEDTAIYYCARYIPRFDPWGQGTLVTVSS
VL: DIQMTQSPSSLSASVGDRVTITCQASQDISNYLNWFQQKPGRAPKLLIYDASNLETGVPSRFSGSGSGTDFTFTISSLQPEDIATYYCQQYDNLPITFGQGTRLEIKR
B7: mAb10964 (antibody, V domains shown)
VH: QVQLQESGPGLVKPSETLSLTCTVSGGSINNYYWIWIRQPPGKGLEWIGYIYHSGSTNYNPSLKSRVTISVDTSKNQFSLKVSSVTAADTAVYYCANMVRGVYEDDYWGQGTLVTVSS
VL: DIQMTQSPSSLSASVGDRVTITCRASQSISNYLNWYQQKPGKAPKLLIFAASSLRSGVPSRFSGSGSGTDFTLTISSLHPEDFATYYCQQNYNTPLTFGPGTKVDIKR
B8: mAb10971 (antibody, V domains shown)
VH: B5 VH with V12I, F27V, N35S, A60S, R64K, T68S, H72D, G99L, S100Y, A101Y
VL: DIQLTQSPSFLSASVGDRVTITCRASQGISTYLAWYQQKPGKAPKLLIYAASTLQSGVPSRFSGSGSGTEFTLTISSLQPEDFATYYCQQLDSYPGLTFGGGTKVEIKR
B9: mAb10969 (antibody, V domains shown)
VH: QVQLVESGGGVVQPGRSLRLSCAASGFTFSSYAMHWVRQAPGKGLEWVAVISYDGSNKYYADSVKGRFTISRDNSKNTLYLQMNSLRAEDTAVYYCARDGRTITMVRGVIDDAFDIWGQGTMVTVSS
VL: not shown
B10: mAb10970 (antibody, V domains shown)
VH: EVQLVESGGGLVQPGGSLRLSCAASGFTVSSNYMSWVRQAPGKGLEWVSVIYSGGSTYYADSVKGRFTISRDNSKNTLYLQMNRLRADDTAVYYCVRDPVGRYYYGMDVWGQGTTVTVSS
VL: not shown
B11: mAb10987 (antibody, V domains shown)
VH: QVQLVESGGGVVQPGRSLRLSCAASGFTFSNYAMYWVRQAPGKGLEWVAVISYDGSNKYYADSVKGRFTISRDNSKNTLYLQMNSLRTEDTAVYYCASGSDYGDYLLVYWGQGTLVTVSS
VL: QSALTQPASVSGSPGQSITISCTGTSSDVGGYNYVSWYQQHPGKAPKLMIYDVSKRPSGVSNRFSGSKSGNTASLTISGLQSEDEADYYCNSLTSISTWVFGGGTKLTVLG

These binders were tested against Bt-SARS-CoV-2 Spike Protein (RBD)(R319-F541).mFc (mAb10621-L2) (SARS-CoV-2) (assay: Luminex bead binding, supernatant).
B1 was tested, and the “Binding signal (MFI)” value was 2230 MFI. For B2, the “Binding signal (MFI)” value was 2200 MFI. For B3, the “Binding signal (MFI)” value was 4300 MFI. B4 was tested, and the “Binding signal (MFI)” value was 9350 MFI.

Each binder was assayed against SARS-CoV-2 Spike Protein (RBD)(R319-F541).mFc (mAb10621-L1) (SARS-CoV-2) (assay: Luminex bead binding, supernatant).
For B1, the “Binding signal (MFI)” value was 2230 MFI. For B2, the “Binding signal (MFI)” value was 9530 MFI. B3 was tested, and the “Binding signal (MFI)” value was 4580 MFI. With B4 the “Binding signal (MFI)” value was 14400 MFI.

These binders were tested against T4, Human SARS Coronavirus Spike S1 Subunit Protein (His Tag) (Sino 40150-V08B1) (Human SARS Coronavirus, UniProt P59594 14-667) (assay: Luminex bead binding, supernatant).
In the case of B1, the “Binding signal (MFI)” value is reported as 16 MFI. For B2, the “Binding signal (MFI)” value was 31 MFI. For B3, the “Binding signal (MFI)” value was 33 MFI. B4 was tested, and the “Binding signal (MFI)” value was 7420 MFI.

Each binder was assayed against T1, MERS-CoV (NCoV/Novel coronavirus) Spike … (assay: Luminex bead binding, supernatant).
With B3 the “Binding signal (MFI)” value was 26 MFI. B5 was tested, and the “Binding signal (MFI)” value was 27 MFI.

What follows are binders tested against T2, MERS-CoV (NCoV/Novel coronavirus) Spike … (assay: Luminex bead binding, supernatant).
B3 was tested, and the “Binding signal (MFI)” value was 15 MFI.

These binders were tested against SARS-CoV-2 Spike Protein (RBD)(R319-F541).hFc (mAb10622-L1) (SARS-CoV-2) (assay: Luminex bead binding, supernatant).
B1 was tested, and the “Binding signal (MFI)” value was 1740 MFI. For B2, the “Binding signal (MFI)” value was 9380 MFI. In the case of B3, the “Binding signal (MFI)” value is reported as 4880 MFI. B4 was tested, and the “Binding signal (MFI)” value was 8880 MFI.

What follows are binders tested against T3, MERS-CoV (NCoV/Novel coronavirus) Spike … (assay: Luminex bead binding, supernatant).
For B3, the “Binding signal (MFI)” value was 20 MFI.

Biological target: T4, Human SARS Coronavirus Spike S1 Subunit …
Assay: Luminex bead binding, supernatant
Remark: another data set of the same source
For B6, the “Binding signal (MFI)” value was 14 MFI. B7 was tested, and the “Binding signal (MFI)” value was 5190 MFI. For B8, the “Binding signal (MFI)” value was 20 MFI. In the case of B9, the “Binding signal (MFI)” value is reported as 20 MFI.

Biological target: T1, MERS-CoV (NCoV/Novel coronavirus) Spike …
Assay: Luminex bead binding, supernatant
Remark: another data set of the same source
For B6, the “Binding signal (MFI)” value was 20 MFI. In the case of B7, the “Binding signal (MFI)” value is reported as 20 MFI. For B10, the “Binding signal (MFI)” value was 23 MFI. With B8 the “Binding signal (MFI)” value was 20 MFI. B9 was tested, and the “Binding signal (MFI)” value was 26 MFI.

Biological target: T2, MERS-CoV (NCoV/Novel coronavirus) Spike …
Assay: Luminex bead binding, supernatant
Remark: another data set of the same source
For B6, the “Binding signal (MFI)” value was 15 MFI. With B7 the “Binding signal (MFI)” value was 15 MFI. With B11 the “Binding signal (MFI)” value was 15 MFI. B10 was tested, and the “Binding signal (MFI)” value was 14 MFI. For B8, the “Binding signal (MFI)” value was 15 MFI. In the case of B9, the “Binding signal (MFI)” value is reported as 16 MFI.

Biological target: T3, MERS-CoV (NCoV/Novel coronavirus) Spike …
Assay: Luminex bead binding, supernatant
Remark: another data set of the same source
In the case of B6, the “Binding signal (MFI)” value is reported as 18 MFI. For B11, the “Binding signal (MFI)” value was 23 MFI. B10 was tested, and the “Binding signal (MFI)” value was 16 MFI. For B8, the “Binding signal (MFI)” value was 13 MFI. B9 was tested, and the “Binding signal (MFI)” value was 20 MFI.
